According to patent publication US7071384B2, “Methods for commercial production of heterologous laccase in plant tissue and extraction of the laccase from plant seed” (Genencor International, Inc., priority 1997, dated 2006):

What was measured:
[1] = Storage stability of rGUS in flaked corn kernels; assay type: physicochemical
Experimental: Dry corn kernels (12% moisture, 500 g per batch) were cracked using a roller mill (Ferrel-Ross, Oklahoma City, Okla.), then flaked to 0.3 mm thickness using Roskamp flaking rolls (Model K, Roskamp Mfg., Inc., Waterloo, Iowa.). Seven 500-gram batches of flaked corn kernels were placed in zip-lock bags and stored at each of four different temperatures for up to 95 days. The storage stability study was performed in triplicate; three 50-g samples per time and per temperature. To determine the activity of GUS, a 20-g sample was taken from each of the three 50-g bags at the specified time and extracted with 200 ml of 20 mM Tris-HCl pH 7.9 containing 500 mM NaCl and 1 mM CaCl2. Extraction was carried out using a paddle mixer at ambient temperature for 30 min.

[2] = Heat stability of rGUS in whole corn kernels; assay type: physicochemical
[3] = Large-scale custom milling of transgenic corn, rGUS activity retention; assay type: physicochemical; conditions: 1,000 kg corn milled, less than 1 min at 90° C., bagged at about 50° C., 2 h at 30° C., overnight at 10° C.
Experimental: The heat stability results obtained in the laboratory were validated on a large scale. During the processing of 1,000 kg of transgenic corn in a custom-milling plant located in Grinnell, Iowa, the corn was exposed for a short time (less than 1 min) to 90° C. The milled corn was bagged at approximately 50° C., transported at ambient temperature (30° C.) for two hours to Iowa State University, and then stored overnight at 10° C. before the rGUS activity was determined.

[4] = rGUS activity after extraction treatments (hexane defatting; SDS/ME buffer); assay type: physicochemical
Experimental: A portion of the germ sample prepared by the degermination process was defatted by using a Soxhlet apparatus. Forty grams of full-fat germ were extracted with 300 ml of hexane for five hours, and then air-dried at ambient temperature to remove the hexane.
All samples (flaked kernels, full-fat germ and defatted germ) were ground using a coffee grinder before protein extraction. The samples were extracted at 1:4 or 1:10 solid-to-liquid ratio with 50 mM NaPi buffer of pH 7.5. The extraction was carried out for 15 minutes at ambient temperature by using a magnetic stirrer for mixing less than 50-ml and a paddle mixer for greater than 50-ml volumes. After stirring, the suspension was centrifuged at 26,000 g for 25 min at 0° C., and then filtered through a 4-layer of cheesecloth. The extract was assayed for GUS activity (Hood et al., supra) and protein (Jefferson, R. A.; Wilson, K. J. (1991). In The GUS Gene Fusion system. In “Plant Molecular Biology Manual”, Vol. 1, B14, (S. B. Gelven, R. A. Schilperoort and D. P. S. Verma, eds.). Kluwer Academic Publisher, Dordrecht, Belgium. pp.1–33).
To determine whether a complete extraction of rGUS from corn kernels, full-fat germ and defatted germ was achieved, the remaining solids were stained with X-Gluc. […] The Western blot analysis of the spent solids confirmed the presence of unextracted rGUS. […]

[5] = rGUS specific activity after three-step chromatography purification; assay type: biochemical
Text: Distribution of rGUS in the Corn Kernel Tissue Corn kernels (100 g) were soaked in deionized water for two days. In two days separation of germ, hull and endosperm was completed and soaked for 2–3 days. The first half was soaked for 2 days, and the other half for 3 days. The hulls, endosperm, and germ were manually separated. Each fraction was air-dried at ambient temperature and ground with a coffee grinder (Salton/Maxim Housewares Inc., Mont. Prospect,Ill.). rGUS activity and the moisture content of each ground sample were determined. rGUS activity was determined using the assay described by Jefferson and Wilson (Jefferson, R. A.; Wilson, K. J. (1991). In The GUS Gene Fusion system. In “Plant Molecular Biology Manual”, Vol. 1, B14, (S. B. Gelven, R. A. Schilperoort and D. P. S. Verma, eds.). Kluwer Academic Publisher, Dordrecht, Belgium. pp.1–33). One unit (U) of rGUS activity was defined as the amount of enzyme that converts one nmole of p-nitrophenyl β-D-glucuronide per minute at pH 7.0 and 37° C. Storage and Heat Stability
Purification Recombinant GUS was purified from ground kernels, full-fat germ and defatted germ using a three-step chromatography. Ground corn kernels (75 g), full-fat germ (7.5 g), and defatted germ (7.5 g) samples were extracted with 50 mM NaPi buffer pH 7.5 (buffer A) at 1:4 or 1:10 solid-to-liquid ratio as described in the previous section. Fifteen ml of DEAE-Toyopearl (Supelco, Bellefonte, Pa.) resin in buffer A were added to the centrifuged and filtered extract to adsorb (capture) rGUS. The slurry was mixed with a magnetic stirrer for 15 min at ambient temperature, filtered through a funnel-supported No. 1 filter paper, and washed with 400 ml of buffer A. The washed DEAE resin was packed into a glass column with an inside diameter of 1.5 cm. The adsorbed rGUS was eluted with 0.3 M NaCl in buffer A. The fractions containing rGUS activity were combined, ammoniumsufate (AS) was added to a final concentration of 1 M, and the solution was filtered through a 0.45 μfilter. […]

B1: rGUS: recombinant β-glucuronidase produced in transgenic corn kernels (protein)
chain: MLRPVETPTREIKKLDGLWAFSLDRENCGIDQRWWESALQESRAIAVPGSFNDQFADADIRNYAGNVWYQREVFIPKGWAGQRIVLRFDAVTHYGKVWVNNQEVMEHQGGYTPFEADVTPYVIAGKSVRITVCVNNELNWQTIPPGMVITDENGKKKQSYFHDFFNYAGIHRSVMLYTTPNTWVDDITVVTHVAQDCNHASVDWQVVANGDVSVELRDADQQVVATGQGTSGTLQVVNPHLWQPGEGYLYELCVTAKSQTECDIYPLRVGIRSVAVKGEQFLINHKPFYFTGFGRHEDADLRGKGFDNVLMVHDHALMDWIGANSYRTSHYPYAEEMLDWADEHGIVVIDETAAVGFNLSLGIGFEAGNKPKELYSEEAVNGETQQAHLQAIKELIARDKNHPSVVMWSIANEPDTRPQGAREYFAPLAEATRKLDPTRPITCVNVMFCDAHTDTISDLFDVLCLNRYYGWYVQSGDLETAEKVLEKELLAWQEKLHQPIIITEYGVDTLAGLHSMYTDMWSEEYQCAWLDMYHRVFDRVSAVVGEQVWNFADFATSQGILRVGGNKKGIFTRDRKPKSAAFLLQKRWTGMNFGEKPQQGGKQ
For B1, the “loss of rGUS activity” value ([1]; flaked kernels at 10° C. for up to 3 months) was 23%, the “loss of initial GUS activity” value ([1]; flaked kernels at 25° C. after three weeks (sample spoilage)) was 13% and the “loss of initial rGUS activity” value ([1]; flaked kernels at 37° C. for one week) was 23%. For the same molecule, the rGUS activity loss ([1]; flaked kernels at −29, 10, or 25° C. for up to 2 weeks) was “no significant loss of rGUS activity”, the “loss of rGUS activity” value ([1]; flaked kernels at −29° C. for up to 3 months) was 14% and the “rGUS activity after heating” value ([2]; kernels, 50° C. for up to six days) was “fully retained”. For the same molecule, the “loss of initial rGUS activity” value ([2]; kernels, 70° C. for 8 hours) was 60%, the “rGUS activity after heating” value ([2]; kernels, 70° C. for one hour) was “did not significantly affect rGUS activity” and the “residual rGUS activity” value ([2]; kernels, 90° C. for one hour) was “No residual rGUS activity”. For the same molecule, the “residual rGUS activity” value ([2]; kernels, 125° C. for 10 minutes) was “No residual rGUS activity”, the “rGUS activity after heating” value ([2]; whole kernels, 50° C. for up to eight hours) was “did not affect rGUS activity” and the rGUS activity loss [3] was “no loss of rGUS activity”. For the same molecule, the “rGUS activity after extraction with detergent” value ([4]; 1% (v/v) SDS and 2% (v/v) ME in extraction buffer) was “inactive”, the “rGUS activity after corn oil extraction” value ([4]; germ defatted with hexane (˜60° C.)) was “did not affect the activity of rGUS” and the Specification activity ([5]; purified from defatted germ, solid-to-liquid ratio 1:10) was 36,000 U/mg. The Specification activity ([5]; purified from flaked corn, solid-to-liquid ratio 1:4) was 36,000 U/mg and the Specification activity ([5]; purified from full-fat germ, solid-to-liquid ratio 1:10) was 45,000 U/mg.
